The results in this text go back to patent US20220017623A1, “TREATMENT OF CANCER USING A CEA CD3 BISPECIFIC ANTIBODY AND A WNT SIGNALING INHIBITOR” (Hoffmann-La Roche Inc., priority 2019, published 2022).

This experiment deals with Carcinoembryonic antigen (CEA) (human) (UniProt P06731). In words: cell-based or functional assay.
Carcinoembryonic antigen (CEA) (human), sequence (P06731 35-702): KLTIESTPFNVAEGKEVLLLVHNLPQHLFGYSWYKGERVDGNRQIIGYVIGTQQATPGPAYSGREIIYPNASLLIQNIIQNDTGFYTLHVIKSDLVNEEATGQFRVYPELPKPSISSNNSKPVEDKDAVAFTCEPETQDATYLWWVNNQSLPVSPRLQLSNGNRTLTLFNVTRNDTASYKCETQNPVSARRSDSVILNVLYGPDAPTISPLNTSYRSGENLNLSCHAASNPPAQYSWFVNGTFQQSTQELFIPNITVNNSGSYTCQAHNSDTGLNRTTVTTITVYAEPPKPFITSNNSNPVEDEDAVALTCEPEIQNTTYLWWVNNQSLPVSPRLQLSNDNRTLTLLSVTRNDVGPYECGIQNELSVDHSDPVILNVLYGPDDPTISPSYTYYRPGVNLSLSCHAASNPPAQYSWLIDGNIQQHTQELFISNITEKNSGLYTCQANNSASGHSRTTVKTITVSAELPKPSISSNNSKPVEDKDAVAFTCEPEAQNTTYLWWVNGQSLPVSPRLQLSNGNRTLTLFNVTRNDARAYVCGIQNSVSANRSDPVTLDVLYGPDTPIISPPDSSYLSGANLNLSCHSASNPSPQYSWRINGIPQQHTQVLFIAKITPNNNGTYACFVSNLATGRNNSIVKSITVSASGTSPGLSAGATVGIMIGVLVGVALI

The substance cibisatamab (bispecific antibody) showed a Pearson correlation of growth reduction with the fraction of CEAhi cancer cells in each PDO of 0.915 r.
